Source: patent US20030077661A1 (ST JUDE CHILDREN S RESEARCH HOSPITAL, published 2003)

T1: 6×-Histidine (6×-His) fusion protein containing the C-terminal kinase domain of ATM, residues 2712-3056 (Homo sapiens (Human), UniProt Q13315 2712-3056)
T1 construct: also called ATM kinase domain; not shown: 6×-His tag from pET28
T1 sequence: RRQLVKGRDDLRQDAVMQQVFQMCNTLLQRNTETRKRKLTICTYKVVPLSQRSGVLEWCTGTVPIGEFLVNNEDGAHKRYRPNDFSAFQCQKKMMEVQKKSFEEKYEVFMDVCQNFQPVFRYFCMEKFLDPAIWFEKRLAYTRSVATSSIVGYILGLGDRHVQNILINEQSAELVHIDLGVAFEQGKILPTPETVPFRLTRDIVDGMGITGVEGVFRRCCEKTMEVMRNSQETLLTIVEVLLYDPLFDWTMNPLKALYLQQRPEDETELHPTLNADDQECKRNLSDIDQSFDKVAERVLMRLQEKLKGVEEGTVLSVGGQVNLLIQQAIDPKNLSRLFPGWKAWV


Key:
[1] = target: the molecule itself; assay: SDS-PAGE of the purified fragment (self-association)
Procedure: As the ATM kinase domain interacts stably with the domain containing the autophosphorylation site, it was determined whether a truncated recombinant ATM molecule that included the phosphorylation and kinase domains would fold properly and have kinase activity. A galactose-inducible pYES plasmid containing 6×-His-FLAG®-tagged ATM¹⁹²³⁻³⁰⁵⁶ was transfected into Saccharomyces cerevisiae and a soluble ATM fragment was recovered. The polypeptide was purified by anti-FLAG® affinity chromatography.

[2] = target: T1, 6×-Histidine (6×-His) fusion protein …; assay: co-expression in E. coli; kinase domain remained insoluble
Text: A further aspect of the invention provides a method of producing soluble ATM kinase by contacting the kinase domain of ATM with a fragment of ATM kinase containing Ser¹⁹⁸¹. […] Although the kinase domain was insoluble in bacteria when co-transfected with GST alone or a GST fusion with the ATM target peptide p53 (residues 1-101), a significant percentage was stabilized and solubilized in the presence of the GST-ATM¹⁹⁶¹⁻²⁰⁴⁶ fusion protein. The kinase domain was also solubilized in the presence of the GST-ATM¹⁹⁶¹⁻²⁰⁴⁶ fusion protein containing Ser¹⁹⁸¹→Ala, but remained insoluble in the presence of phosphorylation-mimic fusion peptides, Ser¹⁹⁸¹→Asp and Ser¹⁹⁸¹→Glu. Furthermore, the soluble kinase domain co-purified on glutathione-agarose with the GST-ATM¹⁹⁶¹⁻²⁰⁴⁶ fusion proteins containing wild-type sequence or Ser¹⁹⁸¹→Ala.

binding result [2] | Binder | binding result [1]
– | 6×-His-FLAG®-tagged ATM^1923-3056 (enzyme, Expressed in S. cerevisiae from pYES2; also called soluble ATM fragment; truncated recombinant ATM; not shown: N-terminal 6×-His and FLAG tags) SSGTIFNDAFWLDLNYLEVAKVAQSCAAHFTALLYAEIYADKKSMDDQEKRSLAFEEGSQSTTISSLSEKSKEETGISLQDLLLEIYRSIGEPDSLYGCGGGKMLQPITRLRTYEHEAMWGKALVTYDLETAIPSSTRQAGIIQALQNLGLCHILSVYLKGLDYENKDWCPELEELHYQAAWRNMQWDHCTSVSKEVEGTSYHESLYNALQSLRDREFSTFYESLKYARVKEVEEMCKRSLESVYSLYPTLSRLQAIGELESIGELFSRSVTHRQLSEVYIKWQKHSQLLKDSDFSFQEPIMALRTVILEILMEKEMDNSQRECIKDILTKHLVELSILARTFKNTQLPERAIFQIKQYNSVSCGVSEWQLEEAQVFWAKKEQSLALSILKQMIKKLDASCAANNPSLKLTYTECLRVCGNWLAETCLENPAVIMQTYLEKAVEVAGNYDGESSDELRNGKMKAFLSLARFSDTQYQRIENYMKSSEFENKQALLKRAKEEVGLLREHKIQTNRYTVKVQRELELDELALRALKEDRKRFLCKAVENYINCLLSGEEHDMWVFRLCSLWLENSGVSEVNGMMKRDGMKIPTYKFLPLMYQLAARMGTKMMGGLGFHEVLNNLISRISMDHPHHTLFIILALANANRDEFLTKPEVARRSRITKNVPKQSSQLDEDRTEAANRIICTIRSRRPQMVRSVEALCDAYIILANLDATQWKTQRKGINIPADQPITKLKNLEDVVVPTMEIKVDHTGEYGNLVTIQSFKAEFRLAGGVNLPKIIDCVGSDGKERRQLVKGRDDLRQDAVMQQVFQMCNTLLQRNTETRKRKLTICTYKVVPLSQRSGVLEWCTGTVPIGEFLVNNEDGAHKRYRPNDFSAFQCQKKMMEVQKKSFEEKYEVFMDVCQNFQPVFRYFCMEKFLDPAIWFEKRLAYTRSVATSSIVGYILGLGDRHVQNILINEQSAELVHIDLGVAFEQGKILPTPETVPFRLTRDIVDGMGITGVEGVFRRCCEKTMEVMRNSQETLLTIVEVLLYDPLFDWTMNPLKALYLQQRPEDETELHPTLNADDQECKRNLSDIDQSFDKVAERVLMRLQEKLKGVEEGTVLSVGGQVNLLIQQAIDPKNLSRLFPGWKAWV | binds
no binding | GST-ATM^1961-2046 phosphorylation-mimic fusion peptide Ser^1981→Asp (other, not shown: glutathione-S-transferase (GST) as encoded by pGEX-4T-1) YADKKSMDDQEKRSLAFEEGDQSTTISSLSEKSKEETGISLQDLLLEIYRSIGEPDSLYGCGGGKMLQPITRLRTYEHEAMWGKAL | –
no binding | GST-ATM^1961-2046 phosphorylation-mimic fusion peptide Ser^1981→Glu (other, not shown: glutathione-S-transferase (GST) as encoded by pGEX-4T-1) YADKKSMDDQEKRSLAFEEGEQSTTISSLSEKSKEETGISLQDLLLEIYRSIGEPDSLYGCGGGKMLQPITRLRTYEHEAMWGKAL | –
